From FireProtDB (doi:10.1021/acs.biochem.5b01204)
Values joined by “and” are separate entries in the source; they are usually repeats but may differ in a detail not shown here. Equal entries are not always repeated.

Settings: Enterobacteria phage T4, pH 7.4, Sodium Phosphate Buffer, whole UniProt chain shown; for denaturant midpoint (higher = more stable): 25 °C, Urea

B1: Sliding clamp wild type, P04525 (protein)
chain: MKLSKDTTALLKNFATINSGIMLKSGQFIMTRAVNGTTYAEANISDVIDFDVAIYDLNGFLGILSLVNDDAEISQSEDGNIKIADARSTIFWPAADPSTVVAPNKPIPFPVASAVTEIKAEDLQQLLRVSRGLQIDTIAITVKEGKIVINGFNKVEDSALTRVKYSLTLGDYDGENTFNFIINMANMKMQPGNYKLLLWAKGKQGAAKFEGEHANYVVALEADSTHDF
For B1, the “denaturant midpoint (higher = more stable)” value (“denaturant midpoint” below) (CD, transition: 3, reversible: yes) was 2.6 M and 5.7 M, the “denaturant midpoint” value (CD) was 5.8 M and 2.5 M and the “denaturant midpoint” value (fluorescence, transition: 3, reversible: yes) was 2.7 M and 5.7 M. The “denaturant midpoint” value (fluorescence) was 5.9 M, the Tm (Thermal, DSC, reversible: no) was 52.3 °C and the “unfolding enthalpy (calorimetric)” value (Thermal, DSC, reversible: no) was 83.6 kcal/mol. For the same protein, the “unfolding enthalpy (van 't Hoff)” value (Thermal, DSC, reversible: no) was 259 kcal/mol.
